# In patent US20150203575A1 (Genentech, published 2015):
# Key:
# [1] = molecular target: T1, MAG expressed on cells (human, UniProt P20916 20-626); experiment: flow cytometry, transfected 293T cells, 50 µg/ml
# T1 construct: Clone of the Origene human cDNA library; also called Myelin associated glycoprotein; SIGLEC4A
# T1 sequence: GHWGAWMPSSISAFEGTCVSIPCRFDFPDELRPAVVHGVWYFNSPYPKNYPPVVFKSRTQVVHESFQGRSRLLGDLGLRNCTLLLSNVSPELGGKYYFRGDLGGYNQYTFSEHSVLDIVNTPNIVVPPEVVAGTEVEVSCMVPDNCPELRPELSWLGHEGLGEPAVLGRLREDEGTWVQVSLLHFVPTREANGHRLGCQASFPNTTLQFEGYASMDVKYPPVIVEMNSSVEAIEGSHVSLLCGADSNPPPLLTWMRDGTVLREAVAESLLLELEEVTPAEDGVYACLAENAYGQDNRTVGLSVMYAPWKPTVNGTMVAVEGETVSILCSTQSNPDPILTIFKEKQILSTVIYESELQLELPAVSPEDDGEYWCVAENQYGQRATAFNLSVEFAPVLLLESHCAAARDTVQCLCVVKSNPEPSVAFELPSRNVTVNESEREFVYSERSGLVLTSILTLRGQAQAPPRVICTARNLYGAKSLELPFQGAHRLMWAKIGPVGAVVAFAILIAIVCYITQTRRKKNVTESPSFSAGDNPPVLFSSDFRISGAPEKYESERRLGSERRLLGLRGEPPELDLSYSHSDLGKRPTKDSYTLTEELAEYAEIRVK
# [2] = molecular target: T2, LRRTM4 expressed on cells (human, UniProt Q86VH4 31-590); experiment: flow cytometry, transfected 293T cells, 50 µg/ml
# T2 construct: Clone of the Origene human cDNA library; also called Leucine rich repeat transmembrane neuronal 4
# [3] = molecular target: T3, human NPDC1 expressed on cells (human, UniProt Q9NQX5 35-325); experiment: equilibrium competition radioligand assay: 125I-hPILRα-Fc against unlabeled hPILRα-Fc on 293T cells transiently expressing hNPDC1; average of two replicate assays
# T3 construct: also called hNPDC1; hNPCD1
# T3 sequence: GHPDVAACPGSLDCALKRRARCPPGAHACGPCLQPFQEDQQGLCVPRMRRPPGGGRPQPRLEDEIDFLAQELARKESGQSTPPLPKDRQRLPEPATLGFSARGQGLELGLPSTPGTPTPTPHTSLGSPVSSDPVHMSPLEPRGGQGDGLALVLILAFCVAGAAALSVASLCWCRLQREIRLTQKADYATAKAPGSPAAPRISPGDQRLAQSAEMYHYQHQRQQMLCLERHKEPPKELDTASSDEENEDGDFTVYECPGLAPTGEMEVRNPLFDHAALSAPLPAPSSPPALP
# Source text: Binding to mock transfectants (grey area) represents background binding. Transfected ligand expressing cells were gated and their binding to PILRα-Fc was shown. […] Binding to mock transfectants (grey area) represents background binding. PILRα positive cells were gated and ligand fusion staining was shown.
# [4] = molecular target: T4, IL-2Ra expressed on cells (human, UniProt P01589 22-272); experiment: flow cytometry, transfected 293T cells, 50 µg/ml
# T4 construct: Clone of the Origene human cDNA library; also called Interleukin 2 receptor alpha
# T4 sequence: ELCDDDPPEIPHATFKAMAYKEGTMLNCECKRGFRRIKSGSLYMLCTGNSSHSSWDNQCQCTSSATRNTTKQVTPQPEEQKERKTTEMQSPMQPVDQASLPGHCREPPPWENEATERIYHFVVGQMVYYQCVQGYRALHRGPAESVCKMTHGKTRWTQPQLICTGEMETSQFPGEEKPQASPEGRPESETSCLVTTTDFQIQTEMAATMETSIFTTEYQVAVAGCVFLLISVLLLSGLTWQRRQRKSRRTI
# [5] = molecular target: T5, PSS8 expressed on cells (human, UniProt Q16651 30-343); experiment: flow cytometry, transfected 293T cells, 50 µg/ml
# T5 construct: Clone of the Origene human cDNA library; also called Protease serine 8; prostasin
# [6] = molecular target: T6, BR3 expressed on cells (human, UniProt Q96RJ3 1-184); experiment: flow cytometry, transfected 293T cells, 50 µg/ml
# T6 construct: Clone of the Origene human cDNA library
# T6 sequence: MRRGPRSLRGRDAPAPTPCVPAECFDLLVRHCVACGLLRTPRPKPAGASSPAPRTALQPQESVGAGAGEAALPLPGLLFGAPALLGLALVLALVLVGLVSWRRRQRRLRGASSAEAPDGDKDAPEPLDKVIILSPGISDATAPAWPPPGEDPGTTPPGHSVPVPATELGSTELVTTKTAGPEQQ
# [7] = molecular target: T7, hCOLEC12-his (human, UniProt Q5KU26 59-742, sialylated O-glycans and N-glycans); experiment: SPR equilibrium binding analysis, hCOLEC12 immobilised
# T7 construct: Whole entry named; also called human COLEC12-his; hCOLEC12 (SPR); not shown: his tag
# [8] = molecular target: T8, human COLEC12 expressed on cells (human, UniProt Q5KU26 1-742); experiment: flow cytometry, transfected 293T cells, 2 µg/ml; 293T-Neo: 0.013
# T8 construct: also called hCOLEC12; C-terminal his tagged hCOLEC12
# [9] = molecular target: T3, human NPDC1 expressed on cells; experiment: as above
# [10] = molecular target: T9, mouse CD99 expressed on 293T cells (mouse, UniProt Q8VCN6 29-175, sialylated O-glycans at Thr-45 and Thr-50 (cited as relevant for PILRα recognition)); experiment: as above
# T9 construct: whole, on cells; also called mCD99; mCD99 transfectants
# T9 sequence (looked up): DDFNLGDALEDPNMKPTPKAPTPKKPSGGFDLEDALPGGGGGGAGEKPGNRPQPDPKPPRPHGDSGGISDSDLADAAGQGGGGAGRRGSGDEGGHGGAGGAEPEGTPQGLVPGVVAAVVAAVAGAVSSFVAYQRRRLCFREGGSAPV
# [11] = molecular target: T1, MAG expressed on cells; experiment: flow cytometry, transfected 293T cells, 2 µg/ml
# [12] = molecular target: T2, LRRTM4 expressed on cells; experiment: flow cytometry, transfected 293T cells, 2 µg/ml
# [13] = molecular target: T4, IL-2Ra expressed on cells; experiment: flow cytometry, transfected 293T cells, 2 µg/ml
# [14] = molecular target: T5, PSS8 expressed on cells; experiment: flow cytometry, transfected 293T cells, 2 µg/ml
# [15] = molecular target: T6, BR3 expressed on cells; experiment: flow cytometry, transfected 293T cells, 2 µg/ml
# [16] = molecular target: T8, human COLEC12 expressed on cells; experiment: flow cytometry, transfected 293T cells, 50 µg/ml; 293T-Neo: 1.5
# [17] = molecular target: T3, human NPDC1 expressed on cells; experiment: as above
# [18] = molecular target: T9, mouse CD99 expressed on 293T cells; experiment: as above
# T5 sequence (Q16651 30-343 limits assumed): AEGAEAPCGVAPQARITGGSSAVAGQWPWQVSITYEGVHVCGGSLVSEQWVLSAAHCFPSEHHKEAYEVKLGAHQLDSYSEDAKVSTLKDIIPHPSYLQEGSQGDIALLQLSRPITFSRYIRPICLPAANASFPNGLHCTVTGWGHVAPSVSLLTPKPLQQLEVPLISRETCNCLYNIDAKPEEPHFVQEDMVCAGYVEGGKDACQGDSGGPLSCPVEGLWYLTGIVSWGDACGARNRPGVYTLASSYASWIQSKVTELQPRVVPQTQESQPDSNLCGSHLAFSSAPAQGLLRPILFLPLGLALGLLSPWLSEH
# T2 sequence (Q86VH4 31-590 limits assumed): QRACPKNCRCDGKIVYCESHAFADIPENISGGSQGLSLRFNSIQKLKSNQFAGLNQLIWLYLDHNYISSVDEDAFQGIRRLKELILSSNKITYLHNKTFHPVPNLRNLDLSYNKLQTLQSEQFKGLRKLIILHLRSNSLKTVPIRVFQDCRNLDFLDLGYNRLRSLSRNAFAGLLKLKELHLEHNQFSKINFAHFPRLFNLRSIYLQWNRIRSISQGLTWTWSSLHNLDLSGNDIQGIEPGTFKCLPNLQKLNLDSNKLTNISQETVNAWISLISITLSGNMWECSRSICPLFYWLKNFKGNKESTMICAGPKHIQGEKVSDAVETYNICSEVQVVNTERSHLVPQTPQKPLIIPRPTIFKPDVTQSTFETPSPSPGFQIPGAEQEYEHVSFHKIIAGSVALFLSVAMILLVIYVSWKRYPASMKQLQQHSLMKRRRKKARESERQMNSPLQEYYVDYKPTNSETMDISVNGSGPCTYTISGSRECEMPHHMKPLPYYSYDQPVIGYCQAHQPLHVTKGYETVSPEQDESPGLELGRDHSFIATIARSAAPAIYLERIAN
# T8 sequence (Q5KU26 whole entry S522P/G606S): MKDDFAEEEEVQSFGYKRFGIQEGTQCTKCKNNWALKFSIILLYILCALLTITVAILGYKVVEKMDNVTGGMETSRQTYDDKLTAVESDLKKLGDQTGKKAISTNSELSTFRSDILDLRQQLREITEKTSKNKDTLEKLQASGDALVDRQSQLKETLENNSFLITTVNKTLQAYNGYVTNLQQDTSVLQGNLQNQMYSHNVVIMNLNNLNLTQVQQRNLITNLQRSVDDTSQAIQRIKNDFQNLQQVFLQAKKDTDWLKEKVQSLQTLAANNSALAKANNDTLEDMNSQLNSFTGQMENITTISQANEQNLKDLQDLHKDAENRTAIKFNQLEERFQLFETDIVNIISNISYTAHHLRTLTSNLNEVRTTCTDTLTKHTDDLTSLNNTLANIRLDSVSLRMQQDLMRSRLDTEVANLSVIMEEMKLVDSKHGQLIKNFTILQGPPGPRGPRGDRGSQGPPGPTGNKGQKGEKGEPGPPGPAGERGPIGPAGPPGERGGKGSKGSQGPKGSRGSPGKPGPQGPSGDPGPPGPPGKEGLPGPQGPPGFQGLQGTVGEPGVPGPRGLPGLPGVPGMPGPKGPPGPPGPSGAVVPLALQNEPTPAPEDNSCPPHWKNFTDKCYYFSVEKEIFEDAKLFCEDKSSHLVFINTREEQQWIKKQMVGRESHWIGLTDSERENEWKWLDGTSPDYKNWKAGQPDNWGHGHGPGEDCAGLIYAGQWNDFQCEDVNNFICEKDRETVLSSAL
# T7 sequence (Q5KU26 59-742 S522P/G606S limits assumed): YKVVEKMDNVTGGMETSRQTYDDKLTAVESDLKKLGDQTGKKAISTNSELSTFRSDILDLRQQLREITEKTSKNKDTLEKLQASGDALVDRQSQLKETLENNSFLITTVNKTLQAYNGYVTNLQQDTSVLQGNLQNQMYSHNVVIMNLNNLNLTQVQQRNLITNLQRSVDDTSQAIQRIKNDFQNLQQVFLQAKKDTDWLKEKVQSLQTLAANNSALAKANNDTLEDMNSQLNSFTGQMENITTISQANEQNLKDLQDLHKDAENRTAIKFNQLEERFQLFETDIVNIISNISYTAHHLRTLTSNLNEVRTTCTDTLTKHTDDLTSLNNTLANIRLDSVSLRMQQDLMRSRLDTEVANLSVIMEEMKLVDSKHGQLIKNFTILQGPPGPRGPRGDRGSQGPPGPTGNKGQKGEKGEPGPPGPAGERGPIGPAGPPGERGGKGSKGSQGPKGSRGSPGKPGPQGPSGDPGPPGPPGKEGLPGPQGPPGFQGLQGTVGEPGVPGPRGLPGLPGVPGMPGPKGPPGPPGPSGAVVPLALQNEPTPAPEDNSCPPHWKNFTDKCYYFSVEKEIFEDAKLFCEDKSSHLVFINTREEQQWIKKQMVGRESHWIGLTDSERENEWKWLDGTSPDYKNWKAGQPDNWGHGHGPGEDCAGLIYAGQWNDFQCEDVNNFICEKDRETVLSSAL
binder,measurement,setting,value
"hPILRα-Fc (Fc fusion, also called human PILRα-Fc; WT hPILRα-Fc; not shown: Fc of mouse IgG2a (PILRα-mIgG2a, called PILRα-Fc)) QPSGSTGSGPSYLYGVTQPKHLSASMGGSVEIPFSFYYPWELATAPDVRISWRRGHFHRQSFYSTRPPSIHKDYVNRLFLNWTEGQKSGFLRISNLQKQDQSVYFCRVELDTRSSGRQQWQSIEGTKLSITQAVTTTTQRPSSMTTTWRLSSTTTTTGLRVTQGKRRSDSWHISLETA",% cells in lower right quadrant,[1],36.8%
same,% cells in lower right quadrant,[2],46%
same,Kd,[3],49 nM
same,% cells in lower right quadrant,[4],64.4%
same,% cells in lower right quadrant,[5],81%
same,% cells in lower right quadrant,[6],67.3%
same,Kd,[7],1100 nM
same,% cells in lower right quadrant,[8],0.014%
same,% cells in lower right quadrant,[9],27.8%
same,% cells in lower right quadrant,[10],23.4%
same,% cells in lower right quadrant,[11],2.31%
same,% cells in lower right quadrant,[12],11.7%
same,% cells in lower right quadrant,[13],6.39%
same,% cells in lower right quadrant,[14],18.7%
same,% cells in lower right quadrant,[15],31.5%
same,% cells in lower right quadrant,[16],42%
same,% cells in lower right quadrant,[17],68.8%
same,% cells in lower right quadrant,[18],70.8%
